Measurements published in the supplement of paper PMC12764529.
± gives the half width of the 95% confidence interval.

Assays:
[1] = folding stability dG unfold from chymotrypsin proteolysis; higher = more stable
Summary of the method: (§1)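 Designed mini-proteins (under 80 residues, no cysteine) in a PA-tagged cDNA display construct were digested with trypsin and chymotrypsin. Each protease was used at 11 concentrations (threefold dilutions) plus a no-protease condition, followed by sequencing. K50 was inferred by Bayesian fitting of sequencing counts, and unfolding free energy was derived against a sequence-predicted unfolded-state K50 and a shared folded-state K50, per protease or combined. Only designs with AlphaFold2 dimer inter-PAE above 15 were kept.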

[2] = folding stability dG unfold from trypsin proteolysis; higher = more stable
Summary of the method: as §1

[3] = folding stability dG unfold (combined trypsin and chymotrypsin); higher = more stable
Summary of the method: as §1

SAGGSAGGSAGGSIEINIMFELPNGLIFRISTTIEPNPDGNLKLDIDIEVIPIKPGQPISAGGSAGGSAGGS [r10_241_TrROS]
folding stability dG unfold [1]: 4.19 ± 0.13 kcal/mol
folding stability dG unfold [2]: 3.11 ± 0.14 kcal/mol
folding stability dG unfold [3]: 3.96 ± 0.23 kcal/mol

SAGMGIVEALRRELEAAGLDVRVSATVEPLPDLGYVLITVHVEVRNENGEWVPLGPLTILLPVEEAERLSAG [r5_413_TrMRF]
folding stability dG unfold [1]: 2.43 ± 0.07 kcal/mol
folding stability dG unfold [2]: 2.9 ± 0.12 kcal/mol
folding stability dG unfold [3]: 2.55 ± 0.13 kcal/mol

SAGGSAGGSAGGEEVTIVVKSKEDIEALLPPGWKVTKIEEIYVDKETGEKYYKITVKKESAGGSAGGSAGGS [r10_256_TrROS_Hall]
folding stability dG unfold [1]: 3.88 ± 0.062 kcal/mol
folding stability dG unfold [2]: 4.23 ± 0.17 kcal/mol
folding stability dG unfold [3]: 4.06 ± 0.12 kcal/mol

SAGGGVTITLKTADGKTLTLEIPGLTSVTVEPDKVTVEFEIPDYRITITFNPSTGTVEIKISHPDEPESAGG [r13_392_TrMRF]
folding stability dG unfold [1]: 3.93 ± 0.19 kcal/mol
folding stability dG unfold [2]: 3.37 ± 0.19 kcal/mol
folding stability dG unfold [3]: 3.8 ± 0.2 kcal/mol

SAGGSAGGSAGDKPITIFIPGTPDDIKDYIEDEGFKIKDIEIQYHKNKDGKYWVMVTIRVSAGGSAGGSAGG [r11_632_TrROS]
folding stability dG unfold [1]: 3.33 ± 0.13 kcal/mol
folding stability dG unfold [2]: 2.87 ± 0.18 kcal/mol
folding stability dG unfold [3]: 3.19 ± 0.25 kcal/mol

SAGGPKVYLTDIVTTLPDGTVVMIGEIELPDGTPLIAITTIYKDGTVKVFIYDPNGKLIAEIEIKPKPSAGG [r13_903_TrMRF]
folding stability dG unfold [1]: 3.09 ± 0.032 kcal/mol
folding stability dG unfold [2]: 2.15 ± 0.085 kcal/mol
folding stability dG unfold [3]: 2.78 ± 0.064 kcal/mol

SAGGSAGGSAGPKIKIKKFPDFLIAEIEFPDGKKATAIFDPKTGKIIVFVGDKPIEIDIGSAGGSAGGSAGG [r11_846_TrMRF]
folding stability dG unfold [1]: 3.49 ± 0.09 kcal/mol
folding stability dG unfold [2]: 2.16 ± 0.059 kcal/mol
folding stability dG unfold [3]: 3.1 ± 0.07 kcal/mol

SKKVTLPIYFPETGEVVTIDLDELAKALGVDPDKLTLTVVSSGKGRVYRIEVFKDGIRIEEIGDVPPELLSA [r9_819_TrMRF]
folding stability dG unfold [1]: 2.848 ± 0.017 kcal/mol
folding stability dG unfold [2]: 2.2 ± 0.03 kcal/mol
folding stability dG unfold [3]: 2.63 ± 0.05 kcal/mol

SAGNITIEWEEYEDYRVIKITIPYKSPQQAPEEIESIIRKLGFPPNMKIEDIEVDPEEGHVEITIYIKSAGG [r19_186_TrROS]
folding stability dG unfold [1]: 4.65 ± 0.083 kcal/mol
folding stability dG unfold [2]: 3.85 ± 0.12 kcal/mol
folding stability dG unfold [3]: 4.47 ± 0.085 kcal/mol

SADVVVIHARSPEELRAALEEARKEGKTVRIVVSREELDELKALLPEDVKIEVLKNENGEELVVIEVKVSAG [r14_127_TrROS_Hall]
folding stability dG unfold [1]: 3.11 ± 0.28 kcal/mol
folding stability dG unfold [2]: 4.32 ± 0.23 kcal/mol
folding stability dG unfold [3]: 4.15 ± 0.43 kcal/mol

SAGGSAGGSAGGVEIVIMFPRGMPPEQFAKMIAKWLRRQGLPPNVKVDIKIIPIDPDDMSAGGSAGGSAGGS [r10_746_TrROS]
folding stability dG unfold [1]: 3.35 ± 0.066 kcal/mol
folding stability dG unfold [2]: 2.82 ± 0.051 kcal/mol
folding stability dG unfold [3]: 3.15 ± 0.18 kcal/mol

SAGKQEIKVEAVFPGDTLEEFMEFIREFLAEQGLKIEPTEFEIDKVQPMPGGPMIRVTAWIKIEPPDDSAGG [r19_325_TrROS]
folding stability dG unfold [1]: 2.95 ± 0.053 kcal/mol
folding stability dG unfold [2]: 2.31 ± 0.11 kcal/mol
folding stability dG unfold [3]: 2.8 ± 0.22 kcal/mol

SAGGSAGGSAGKVTLTIPFTNEDGTKYIAEFTFDELEVEEDVEIKIVSLGENFDLVLKPESAGGSAGGSAGG [r11_733_TrMRF]
folding stability dG unfold [1]: 1.67 ± 0.041 kcal/mol
folding stability dG unfold [2]: 1.47 ± 0.069 kcal/mol
folding stability dG unfold [3]: 1.63 ± 0.1 kcal/mol

SAGGSAGGSAGGMPVEVTTLETRKDPAGTTTEITLDPKTGRTIIVTKYPNGGSETTVVESAGGSAGGSAGGS [r10_1118_JUSTAS]
folding stability dG unfold [1]: 0.504 ± 0.065 kcal/mol
folding stability dG unfold [2]: 0.788 ± 0.069 kcal/mol
folding stability dG unfold [3]: 0.622 ± 0.17 kcal/mol

SAGKYKIKNVQFSNNSITIEIYDDGKPKAEIPIPPNFPNMKVDAEIDEDGSIKIKFRFNGQPQEIEIPPSAG [r5_533_TrROS]
folding stability dG unfold [1]: 1.54 ± 0.17 kcal/mol
folding stability dG unfold [2]: 0.819 ± 0.057 kcal/mol
folding stability dG unfold [3]: 1.25 ± 0.31 kcal/mol

SAKIEVYELPDGSKEIVFEFGDKVIRVTFFPDYPLAVVEVFDPPKDEVVKTIPVRADDLEDTIKKILEESAG [r14_583_TrMRF]
folding stability dG unfold [1]: 3.07 ± 0.049 kcal/mol
folding stability dG unfold [2]: 1.8 ± 0.096 kcal/mol
folding stability dG unfold [3]: 2.67 ± 0.049 kcal/mol

SAGGSAGGGNVYVKIEIYPYDPKNGEPQEQDITIPFETKEDAKDEIEKLLNMPNGMWIKIEVVDSAGGSAGG [r7_0_TrROS]
folding stability dG unfold [1]: 1.47 ± 0.035 kcal/mol
folding stability dG unfold [2]: 1.31 ± 0.053 kcal/mol
folding stability dG unfold [3]: 1.47 ± 0.12 kcal/mol

SMVKVEIEEENGEKTIRIVNEETGVVVEIKFPEGEEVIEVPSVEELVEELKELGENIEITKIEPLSEEELSA [r9_1102_TrROS_Hall]
folding stability dG unfold [1]: 0.497 ± 0.084 kcal/mol
folding stability dG unfold [2]: 0.425 ± 0.14 kcal/mol
folding stability dG unfold [3]: 0.661 ± 0.25 kcal/mol

SKWTIDIDITYYPEYGVITVTIRYPNSWEQARFDVRSFIHEAGMPIKLEDIEIEQVEGWYEITYTIRIPPSA [r9_164_TrROS]
folding stability dG unfold [1]: 3.88 ± 0.13 kcal/mol
folding stability dG unfold [2]: 3.49 ± 0.19 kcal/mol
folding stability dG unfold [3]: 3.78 ± 0.39 kcal/mol

SAGGMTPAVTETTIELPASDPEAAIAALRAAGWELLARERGPDGSVRMVFAAPTRRVTVDFVGPAAASAGGS [r16_170_JUSTAS]
folding stability dG unfold [1]: 2.03 ± 0.039 kcal/mol
folding stability dG unfold [2]: 1.06 ± 0.014 kcal/mol
folding stability dG unfold [3]: 1.71 ± 0.032 kcal/mol

SDKVVIHFYPGMPVSNIVERVADNPDMTIEIVMPPGMKPSWYNYIRKALRDANIPKDQKVEIEWVPYDDMSA [r9_670_TrROS]
folding stability dG unfold [1]: 3.92 ± 0.042 kcal/mol
folding stability dG unfold [2]: 3.11 ± 0.12 kcal/mol
folding stability dG unfold [3]: 3.59 ± 0.081 kcal/mol
